Paper PMC9002759, “The Sunflower WRINKLED1 Transcription Factor Regulates Fatty Acid Biosynthesis Genes through an AW Box Binding Sequence with a Particular Base Bias”

Molecular target: HaWRI1_DBD (6-His-TRX-WRI1_DBD) (Helianthus annuus (CAS-6 line), UniProt X2BZR1 51-229)
Assay: EMSA; polydIdC; 20 mM Tris-HCl pH 8.0, 250 mM NaCl, 2 mM MgCl2, 1% glycerol, 1 mM DTT, 1 mg/mL BSA, 30 min room temperature, gels at 4 °C; DIG EMSA plus 0.05 µg/µL polydIdC
Settings: protein: recombinant; tags: N-terminal 6xHis-thioredoxin fusion; label: digoxigenin; blunt

Sequence of HaWRI1_DBD (6-His-TRX-WRI1_DBD) (X2BZR1 entry or part of it): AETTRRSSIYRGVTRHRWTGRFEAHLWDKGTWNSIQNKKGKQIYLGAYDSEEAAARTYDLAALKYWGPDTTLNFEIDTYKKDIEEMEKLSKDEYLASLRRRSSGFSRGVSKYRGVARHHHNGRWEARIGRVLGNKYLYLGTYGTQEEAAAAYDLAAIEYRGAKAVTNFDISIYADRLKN

B1: FATA1 AW box 24 bp (dsDNA)
DNA 1: CAGTCCTCGTGCATATCGGAGTCT
DNA 2: AGACTCCGATATGCACGAGGACTG
binding result: binds
